In publication doi:10.1101/2021.05.28.446204:

Assays:
Assay in all cases: fluorescence polarisation
[1] = target: TAMRA-labeled CoV-2 nsp1 C-K R124A/K125A (SARS-CoV-2) (UniProt P0DTD1)
[2] = target: TAMRA-labeled CoV-2 nsp1 C-K, wild type (SARS-CoV-2) (UniProt P0DTD1)
[3] = target: TAMRA-labeled CoV-2 nsp1 C-K R99A (SARS-CoV-2) (UniProt P0DTD1)

purified ribosomes (crude 80S from HeLa cell lysate) (from UniProt P15880;P23396;P62847;P63244) (complex)
fold increase in Kd against WT nsp1 [1]: 2 fold | Kd [2]: 539 nM | fold increase in Kd against WT nsp1 [3]: 1.6 fold
